In patent US10100120B2, “Antibody which specifically binds to human CRTH2” (KYOWA HAKKO KIRIN CO., LTD, priority 2015, dated 2018):

Tests used:
[1] = system: human eosinophils; experiment: Eosinophil depletion (cytotoxic) activity in human peripheral blood cells, flow cytometry; type: cell-based; settings: 37° C., 20 hours
Procedure: Human peripheral blood collected by adding a heparin sodium injection liquid was centrifuged at 4° C. and 1500 rpm for 30 minutes, and the plasma was recovered.
After the plasma was recovered, PBS (NACALAI TESQUE, Inc.) was added to the pellet containing the red blood up to the original volume of blood and the pellet was suspended. Next, to 1 mL of the suspension, 10 mL of hemolyzing solution [solution obtained by diluting 10×RBC Lysis buffer (eBioscience) 10 times with sterile water] was added to be mixed by inversion. The resultant was allowed to stand at room temperature for 10 minutes and centrifuged at room temperature and 1500 rpm for 5 minutes and washed twice with PBS after the supernatant was removed therefrom.
Thereafter, the cell pellet was suspended with the recovered plasma and the cells were seeded in a 48-well plate at 300 μL/well, each of chLym2, humanized Lym2 antibodies LV0HV0, LV0HV1, and LV0HV2a, or an isotype control antibody [IgG1 antibody prepared according to the method described in Example 5 using a vector encoding an anti-2,4-dinitrophenol (DNP) IgG1 antibody described in Clin Cancer Res 2005, 11(8), 3126 to 3135 (hereinafter, referred to as anti-DNP IgG1 antibody)] were added at each final concentrations of 1000, 100, 33, 11, 3.7, 1.2, 0.4, and 0.01 ng/mL to cause a reaction in a 5% CO2 incubator at 37° C. for 20 hours.
After the reaction, the cell fluid in each well was recovered, 10 mL of SM was added thereto, 200 μL per sample of CountBright Absolute Counting Beads, for flow cytometry (Molecular Probes) was added as control beads, and the fluid was centrifuged at 4° C. and 2000 rpm for 10 minutes, and then the supernatant was removed. The resultant was washed twice with SM, 10000 μg/mL of IgG from human serum (Sigma-Aldrich Co. LLC) diluted with SM was added at 300 μL/sample and suspended to cause a reaction at 4° C. for 30 minutes. […]
The cells were washed twice with SM, suspended by SM containing 1% of 7-AAD Staining Solution (BD Biosciences), allowed to stand at 4° C. for 10 minutes, and the fluorescent intensity was analyzed by flow cytometry (BD Biosciences, FACS CantoII).
Human eosinophils were detected as 7-AAD negative siglec8-PE positive fractions in granulocyte fractions of FSC-SSC deployment. Human basophils were detected as 7-AAD negative fractions, CD123-PC-Cy7 positive fractions, FcεRI-APC positive fractions in lymphocyte fractions of FSC-SSC deployment. The cell depletion activity was evaluated by analyzing the count number of each cell per a certain number of CountBright. […]

[2] = system: human eosinophils; experiment: Antagonist activity using shape change of human eosinophils as index (Example 19); type: cell-based; settings: antibody 10 μg/mL or small molecule 10 μM, DKPGD2 0.1-1000 nM; FIG. 16
Procedure: Eosinophils were separated from human peripheral blood in the same manner as in Example 11. The isolated human eosinophils were suspended with Dulbecco's phosphate buffered saline (hereinafter, referred to as D-PBS (−)) (NACALAI TESQUE, Inc.) and performed a reaction in a 5% CO2 incubator at 37° C. for 1 hour and 30 minutes. Thereafter, the cells were seeded in a 96-well plate at 2×10^5 cells/well using 10% FBS-containing RPMI1640. Next, an isotype control antibody [CELL LAB Rat IgG2b Isotype Control (Beckman Coulter Inc.)] at a final concentration of 10 μg/mL or Lym2 antibody; or small molecular CRTH2 antagonist 00000459 (Cayman Chemical) at a final concentration of 10 μM as a positive control, was added thereto to cause a reaction in a 5% CO2 incubator at 37° C. for 30 minutes.
Next, DKPGD2 (Cayman Chemical) at each of final concentrations of 0.1, 1, 10, 100, and 1000 nM was added thereto to cause a reaction in a 5% CO2 incubator at 37° C. for 60 minutes. After the reaction, the cells were washed twice with ice-cold PBS, Fixation Buffer (BD Biosciences) was added at 200 μL/well, and the resultant was suspended well and allowed to stand at 4° C. for 30 minutes. After that, the cells were washed twice with SM, and shape change of eosinophils was analyzed by flow cytometry (BD Biosciences, FACS CantoII).
The shape change of eosinophils was analyzed based on an increase in Forward Scatter Light (FSC) plot which is an index of the cell size, the cell surface area, or the cell diameter in the analysis using flow cytometry and the percentage (%) of eosinophils detected in the gate of high FSC was calculated based on the FSC of DKPGD2-untreated eosinophils.

Molecule	cytotoxic activity against eosinophils ([1]; Example 8, 0.01-1000 ng/mL, FIG. 3)	removal of eosinophils ([1]; Example 14, 0.1-1000 ng/mL, FIG. 11)	inhibition of DKPGD2-dependent shape change of eosinophils (antagonist activity) [2]
LV0HV1: humanized Lym2 antibody, VL LV0 (SEQ ID NO: 33), VH HV1 (SEQ ID NO: 51) (antibody, V domains shown) VH: EVQLVESGGGVVQPGRSLRLSCAASGFTFSNYYMAWVRQAPGKGLEWVATISYDGSSTYYRDSVKGRFTISRDNAKNSLYLQMNSLRAEDTATYYCARHRGYYYSGAGYFDYWGQGTMVTVSS VL: DIVMTQTPLSLPVTPGESASISCRSSQSLEYSDGYTYLEWYLQKPGQSPQVLIYGVSNRFSGVPDRFSGSGSGTDFTLKISRVEAEDVGVYYCFQATHDPLTFGQGTKLEIK	comparable to the chimeric Lym2 antibody chLym2	removed	–
Lym2 antibody: rat anti-human CRTH2 monoclonal antibody from hybridoma Lym2, rat IgG2b; VH SEQ ID NO: 17, VL SEQ ID NO: 19 (antibody, listed as Rattus norvegicus, V domains shown) VH: EVQLVESGGGLVQPGRSMKLSCAASGFTFSNYYMAWVRQAPKKGLEWVATISYDGSSTYYRDSVKGRFTISRDNAKSTLYLQMDSLRSEDTATYYCARHRGYYYSGAGYFDYWGQGVMVTVSS VL: DVVLTQTPVSLSVTLGDQASISCRSSQSLEYSDGYTYLEWYLQKPGQSPQVLIYGVSNRFSGVPDRFIGSGSGTDFTLKISRVEPEDLGVYYCFQATHDPLTFGSGTKLEIK	–	–	didn't inhibit
